# doi:10.1101/2024.01.22.576751 (bioRxiv, 2024)
# Molecular target: the molecule itself
# Assay: cryo-EM structure
protein,measurement,value
"Escherichia coli mechanosensitive channel of small conductance MscS, wild type (natural protein, E. coli, UniProt P0C0S1 1-286, looked up) MEDLNVVDSINGAGSWLVANQALLLSYAVNIVAALAIIIVGLIIARMISNAVNRLMISRKIDATVADFLSALVRYGIIAFTLIAALGRVGVQTASVIAVLGAAGLAVGLALQGSLSNLAAGVLLVMFRPFRAGEYVDLGGVAGTVLSVQIFSTTMRTADGKIIVIPNGKIIAGNIINFSREPVRRNEFIIGVAYDSDIDQVKQILTNIIQSEDRILKDREMTVRLNELGASSINFVVRVWSNSGDLQNVYWDVLERIKREFDAAGISFPYPQMDVNFKRVKEDKAA",stoichiometry N,7
